B1: CHIP, an E3-ubiquitin ligase (enzyme, mouse (endogenous in mouse DC2.4 cells), UniProt Q9WUD1 1-304, looked up)
chain: MKGKEEKEGGARLGTGGGGSPDKSPSAQELKEQGNRLFVGRKYPEAAACYGRAITRNPLVAVYYTNRALCYLKMQQPEQALADCRRALELDGQSVKAHFFLGQCQLEMESYDEAIANLQRAYSLAKEQRLNFGDDIPSALRIAKKKRWNSIEERRIHQESELHSYLTRLIAAERERELEECQRNHEGHEDDGHIRAQQACIEAKHDKYMADMDELFSQVDEKRKKRDIPDYLCGKISFELMREPCITPSGITYDRKDIEEHLQRVGHFDPVTRSPLTQEQLIPNLAMKEVIDAFISENGWVEDY
B2: biotin-labeled chicken ovalbumin (bOVA) (other, UniProt P01012 2-386, looked up)
chain: GSIGAASMEFCFDVFKELKVHHANENIFYCPIAIMSALAMVYLGAKDSTRTQINKVVRFDKLPGFGDSIEAQCGTSVNVHSSLRDILNQITKPNDVYSFSLASRLYAEERYPILPEYLQCVKELYRGGLEPINFQTAADQARELINSWVESQTNGIIRNVLQPSSVDSQTAMVLVNAIVFKGLWEKAFKDEDTQAMPFRVTEQESKPVQMMYQIGLFRVASMASEKMKILELPFASGTMSMLVLLPDEVSGLEQLESIINFEKLTEWTSSNVMEERKIKVYLPRMKMEEKYNLTSVLMAMGITDVFSSSANLSGISSAESLKISQAVHAAHAEINEAGREVVGSAEAGVDAASVSEEFRADHPFLFCIKHIATNAVLFFGRCVSP
modifications: biotin-labeled (sites not given)

Assays:
[1] = biological target: B2; test: cell-based or functional assay
TAP2 = biological target: T1, TAP2 (mouse (endogenous in mouse DC2.4 cells), UniProt P36371 1-702); test: co-immunoprecipitation with anti-TAP2 from DC2.4 lysate, blot with SA-HRP
T1 construct: Endogenous protein in the cell lysate; also called TAP1/2
T1 sequence (looked up): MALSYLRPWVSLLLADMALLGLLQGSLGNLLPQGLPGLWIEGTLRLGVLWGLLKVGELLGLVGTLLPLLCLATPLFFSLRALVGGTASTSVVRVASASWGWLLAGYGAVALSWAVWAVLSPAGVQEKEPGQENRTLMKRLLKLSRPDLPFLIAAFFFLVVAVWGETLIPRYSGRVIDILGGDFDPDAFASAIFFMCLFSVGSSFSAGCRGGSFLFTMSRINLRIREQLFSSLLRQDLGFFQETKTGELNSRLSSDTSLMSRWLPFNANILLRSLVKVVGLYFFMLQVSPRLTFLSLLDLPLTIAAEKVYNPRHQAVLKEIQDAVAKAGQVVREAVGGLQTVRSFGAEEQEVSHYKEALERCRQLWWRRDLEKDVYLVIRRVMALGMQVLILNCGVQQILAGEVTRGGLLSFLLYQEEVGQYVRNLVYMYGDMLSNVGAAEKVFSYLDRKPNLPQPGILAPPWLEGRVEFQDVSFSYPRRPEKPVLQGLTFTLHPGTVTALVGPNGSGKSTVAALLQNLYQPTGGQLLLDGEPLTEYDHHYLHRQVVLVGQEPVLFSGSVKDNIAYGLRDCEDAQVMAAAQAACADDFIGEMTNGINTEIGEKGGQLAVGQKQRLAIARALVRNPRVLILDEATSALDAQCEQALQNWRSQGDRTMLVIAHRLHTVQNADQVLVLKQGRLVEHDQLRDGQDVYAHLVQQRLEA
Method: (§1) DC2.4 cells were incubated with bOVA and subjected to co-immunoprecipitation with anti-Sec61α. bOVA was added at 2.5 mg mL⁻¹ to cell lysates before immunoprecipitation (the two left-hand lanes in each panel).
(§2) 2×10⁷ DC2.4 or BMDC cells were cultured for four hours in a medium containing 10 μM MG-132 in the presence of bOVA at 250 μg mL⁻¹. Cells were lysed in 20 mM HEPES pH7.6 containing 1% digitonin and protease inhibitors to collect biotin-labeled samples. The samples were cleared of impurities in advance using protein G sepharose (Amersham Pharmacia Biotech), and after incubation with antibodies for precipitation (anti-Sec61β, anti Sec61α, anti-VCP, anti-BiP, anti-PDI, anti-calreticulin, anti-TAP1, and anti-TAP2), the immunoprecipitates were collected using protein G. When chicken anti-CHIP antibody was used, immunoprecipitates were collected using a rabbit anti-IgY column (a person, MBL). The precipitated samples were analyzed by SDS-PAGE and Western blotting.

TAP1 = biological target: T2, TAP1 (mouse (endogenous in mouse DC2.4 cells), UniProt P21958 1-724); test: co-immunoprecipitation with anti-TAP1 from DC2.4 lysate, blot with SA-HRP
T2 construct: Endogenous protein in the cell lysate; also called TAP1/2
T2 sequence (looked up): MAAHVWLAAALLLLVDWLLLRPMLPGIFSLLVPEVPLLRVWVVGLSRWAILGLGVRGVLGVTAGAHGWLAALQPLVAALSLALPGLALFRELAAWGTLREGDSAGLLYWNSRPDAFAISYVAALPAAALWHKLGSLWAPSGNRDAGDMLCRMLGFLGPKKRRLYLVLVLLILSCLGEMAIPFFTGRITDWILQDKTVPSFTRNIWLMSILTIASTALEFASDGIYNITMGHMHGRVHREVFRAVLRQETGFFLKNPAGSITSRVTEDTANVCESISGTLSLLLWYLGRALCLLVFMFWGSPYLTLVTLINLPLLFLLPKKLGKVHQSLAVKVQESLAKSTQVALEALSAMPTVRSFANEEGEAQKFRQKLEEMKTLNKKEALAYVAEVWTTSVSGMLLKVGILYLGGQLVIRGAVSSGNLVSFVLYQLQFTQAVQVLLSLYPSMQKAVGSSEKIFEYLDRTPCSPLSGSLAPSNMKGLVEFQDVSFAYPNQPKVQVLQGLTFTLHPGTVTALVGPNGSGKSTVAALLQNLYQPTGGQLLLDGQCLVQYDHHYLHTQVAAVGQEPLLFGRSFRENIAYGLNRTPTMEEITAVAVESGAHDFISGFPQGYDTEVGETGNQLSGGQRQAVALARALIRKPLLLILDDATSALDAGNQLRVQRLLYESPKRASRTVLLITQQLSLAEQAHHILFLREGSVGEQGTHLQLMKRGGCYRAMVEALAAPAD
Method: as §1, §2

| Binder | polyubiquitination of bOVA in CHIP-knocked-down DC2.4 cells relative to parental cells [1] [%] | binding result (TAP2) | binding result (TAP1) |
| --- | --- | --- | --- |
| B1 | 34 |  |  |
| B2 |  | no binding | no binding |
